Experimental data: a protein production outcome set (Wang et al. 2014)

Test: label from the status in PepcDB records

MSNSHLGTLCFIISLLGLANFSLSQTGLDDSTMQSLKSSLNLTSDVDWSNPNPCKWQSVQCDGSNRVTKIQLKQKGIRGTLPTNLQSLSELVILELFLNRISGPIPDLSGLSRLQTLNLHDNLFTSVPKNLFSGMSSLQEMYLENNPFDPWVIPDTVKEATSLQNLTLSNCSIIGKIPDFFGSQSLPSLTNLKLSQNGLEGELPMSFAGTSIQSLFLNGQKLNGSISVLGNMTSLVEVSLQGNQFSGPIPDLSGLVSLRVFNVRENQLTGVVPQSLVSLSSLTTVNLTNNYLQGPTPLFGKSVGVDIVNNMNSFCTNVAGEACDPRVDTLVSVAESFGYPVKLAESWKGNNPCVNWVGITCSGGNITVVNMRKQDLSGTISPSLAKLTSLETINLADNKLSGHIPDELTTLSKLRLLDVSNNDFYGIPPKFRDTVTLVTEGNANMGKNGPNKTSDAPGASPGSKPSGGSDGSETSKKSSNVKIIVPVVGGVVGALCLVGLGVCLYAKKRKRPARVQSPSSNMVIHPHHSGDNDDIKLTVAASSLNSGGGSDSYSHSGSAASDIHVVEAGNLVISIQVLRNVTNNFSEENILGRGGFGTVYKGELHDGTKIAVKRMESSVVSDKGLTEFKSEITVLTKMRHRHLVALLGYCLDGNERLLVYEYMPQGTLSQHLFHWKEEGRKPLDWTRRLAIALDVARGVEYLHTLAHQSFIHRDLKPSNILLGDDMRAKVSDFGLVRLAPDGKYSIETRVAGTFGYLAPEYAVTGRVTTKVDIFSLGVILMELITGRKALDETQPEDSVHLVTWFRRVAASKDENAFKNAIDPNISLDDDTVASIEKVWELAGHCCAREPYQRPDMAHIVNVLSSLTVQWKPTETDPDDVYGIDYDMPLPQVLKKWQAFEGLSQTADDSGSSSSAYGSKDNTQTSIPTRPSGFADSFTSVDGR
protein production: failed

MKLKGVDNKILSNIFSLLSVQGALYIIPLITLPYLVRTLGVENYGVFGFSLAIVSYMSLIVDYGFNITATKTGAEIRYDKNKLSKLFFEILYSKLFMFIICSLSSILFSFFVENNIFNKDIIFVLMFTVFSQVIFPIWFFQAIEELKLVATLNFISKSLSVPLIFILINDEKDLIKLAVIHAITTIIPAIYSVYYIHIRKLVFFYKPSLNSIVSQIKNGWHIFLSGISISFYSTIVTVFLGIFSGATETGYFVAADRLRKAVQGISGPISQSFYPRINSLINTNKKSAINLIKVLYKIQFIVTFILSSLLFIFSEEIVEVLYGNGFVQSIVILKVLSYVPFFVSMSNASGICVIVSFGFNRLFSKIMMFSGGVGVALSFLLINSYGAIGSGLSILISEFIIAIIMIYFVIKLKLLKQ
protein production: failed

MEIFELILLMLSAVFLSNVLSRFLPSIAVPLIQVLLGIILAIPLGDHTMDINPELFLLLFMAPILFNDGARTDKKSLWKNRKAILSLSIGLVFVTVGVLGAFIHYLIPAIPFAAAFALAAALAPTDAVAVGALAEKVRVPHKIMHILEGESLINDASGLVSFQFAVLALVTGTFSFMSAGTSFLLLSLGGIALGVVLSLLKIMLMRGLRQLGIENMTSFMLMEILLPFLIFMVAENIGVNGILAVVSGGMVHSFSYKRINPEMAQLNLLSKNTWSVIIFSLNGLVFVLLGTQLPQIMTAIWEDTGIHKSMLFLYIFGITFLLLALRFLWILFFRNYEENPHADLVSRLKNTFLYTVAGVRGTITLVSALSLPFVLGQGNAFPERDLLIFIAAGVIITTLLLANFTLPLFAAKKDVVVADHTTAIALLRDVVGQLQRYKTDENEVEMNNVLKMYNGRIFSLMEHKEVSATEKELRRLTQEWQLENTRRLVFERKIDTGVGLSLMMRLGKRLYVQTRAQKYRARMRYRQLLSHSIRDFRIVPLSFEERRKERAKLQTENNQFVVQKLNELDKNEFNPEVISLYLMNFERALGSGKHKKETDNEELQTTIDLASQIERETIQHYFEKGTITRKEMKVYRDNLLAIEASFQLEF
protein production: failed

MDFKQRHTWLKIASCKSISAKKRASIWQKLTEFDQYEMTTQTFAESFFPVDKLAQILMELETAEACFFDDVTLIWILDDAYPALLREIYEAPPILFCKGNIDLLQQQAIAIVGTRQMSEYGRKACMKIASELAENKLTIVSGMAIGIDSTAHRATLNKQGATIAVLGSGVNKVYPKKNELLAKEIVKEGLLLSEYLPDEEAKRWHFPERNRIISGLAIGTVIIEAAERSGSLITADIALEQNRQVFAVPGNIFIDTWQGTNYLIQEGAKLVMNSNNIIEEFIQIKP
protein production: failed

MMSNLCKYGPPPDSDSDSSYDGFYFSDKVKRSKPAPYVDPEQKLYDAVVAGDLKTMQEEMRKLVLQVDQPVKGGLNLLMLACREGHYKIVEWLLERAGANVNRQLDSLMPLMMACNTTHKDPCLAERIVGLLLRHGAVINVSEKYGMTPFMFACQNGFAGVVRLLIKDASFDAVDNQGCTAIFHAIEKNHVEVVKLLVEAGANATIANNKGYTPTQVAECHGYYDLLEILPRPASTYLVPTHFLGYNTLRDHIPRIFLKSDCPEYFQELNGILEAINIGNMVQYFAIARISLADFLVMDEQSLREIGIEYPIFRHKILTGILDFHLHHWSNSSIARVKKDEMNNFYEILLITASHLQHLVIIQASLRFILKNQEHNKMGQPSEMQVAAMKSNLQGYRDVLNQITKTVKYLGSFSPSQNPLFIDFNEILAERKRKKVRSYFKYTTIILGISVFICLKCKWFS
protein production: failed

MDLIEPAVRVFLGVFFLMIGLQFAARTLGLYSRLGFSHINYGKTGTATWWHRHTFNLFRAAILLMCLARIWVDLDAWLGVFPLLYHWPVLLAGAVLLLVSYTSVNYLQAYMHEDWRSGIDDHHGSGHLLTDGPFGRSRNPLFLAVMTGQLGFFLALPSVFSLVCLVTGVLVIMRQAREEEKALAKRFGEQYEAYCKRVPRWF
protein production: failed

MSDVPHLRFPEFSGEWEEHTLSEYLEFKNGLNPDAKRIGSGLPFISVMDILSEGVINYDNIRGKVNATEKEIECFGVKDGDLLFQRSSETLEDVGRANVYMDNRTAIYGGFVIRGRKIGNYDPLFFKYLLATPLARKRTCRMGAGAQHFNIGQEGLSKISLYFPSIEEQRKIAEFLSLIDERIATQNKIIEDLKKLKSAISLNVLHSDKWEQFKIKDIAQIGRGRVISSIEIGQQKSPTYPVYSSQTSNDGIMGYLDDYMFEGEYISWTTDGANAGTVFYRNGKFNCTNVCGLLKLRKEFDTHFVSLVLAEATKKYVSINLANPKLMNNTMGNIQIRLPKLEEQKRISIVFRVLQRLWTVHNSLLTEYTKQEQYLLSQMFILEHHHHHH
protein production: failed

MDISGRDVETRLTLAREFMSGVDELPTVPDIVLRIAGKLNDPDVAIDEVADLLLQDQVLTARVVHLANSPLYSAARPISSIRDAVIYLGLDLLREAIFTCAIVDLFKTGKGPLNRSTLWAHSLGVARIAKLIAERTGFLNPVNVYVAGLLHDVGEVFINFFRGKEFSQVVTLVDEEKITFGQAEERLFGTSHCEVGFALAKRWSLNEFICDTILYHHDIEAVPYKQAAIVAMVAFADEYCTLRRLGFEGHKPVDSVRTLLENHPSWGVIRRSLGGSDFDEKLIVAELDSSIVEIRAAVDELFLL
protein production: failed

MSLNNQDISIGKLSRLKIWITDNHLSDDQWSNTKKFIIIKITTEDGIEGWGEAFSINFREKGIAIIIKELFREISNIPNLSIKSFYNKISLLSDGHRGLDFSSATSAIEIALWDISGKLKNLPLNSLLTKSPKPNVPIYATCWSDLKKDTNDYLRQIEKFYGKKYGGIKIYPMLDSLSISIQFVEKVREIVGDELPLMLDLAVPEDLDQTKSFLKEVSSFNPYWIEEPVDGENISLLTEIKNTFNMKVVTGEKQSGLVHFRELISRNAADIFNPDISGMGGLIDIIEISNEASNNGIFISPHCWNSMSVSASAMLHVCSSIPNSEKAEIFPDYINFSKKFCELPFDIIDNKAHINKSAGLGIVIHEDILSELSIYSLDEKSNDEGHHHHHH
protein production: not failed

AAKPQIVEVTDDMPVEPIGVGIPEAGQTYPVIMGDYAAQQARWARIDVQPGTALSKPKPLIAKLDPELGETGPEWAPVNP
protein production: failed

MLYVVGIGPGNEEYFTKEAENALNSVDLIVCYTGYKKYIERFDTEIYVSGMTKEVERVEYALKEAENKNVALVSNGDATIYGLASLAYELNEKNLHNVTINVVSGL
protein production: failed

MTEQSAHEKYEFKKKLEGLRDKKGRSTELISLYIPPDKQIFDVTNQLKDEHGQAANIKSKLTRTNVQGAIESLLSRLRYLDKVPENGIVYFTGAVDIGANKTSMESEVIVPPDPITVYKYHCDSSFYLEPLEDMLKDKNTYGLLVLDRREATIGLLVGKRIQPFRNLTSTVPGKQRKGGQSAHRFQQLRLIAIHDFYKRIGDAASEVFMAVDHKDLKGVLIGGPSPTKEEFHAGEFLHHELMKKILGLFDTAYTDESGLSELVNAAGEKLQDLELMGQKNAVRDFFKELIADSGKVAYGESQVRANLEINSVDVLLLSEDLRAERVTTKCSVCGYENKWTRRWKPGEPAPAAGNCPKCGSSLEVTDVTDIVDEFSELADKSNAKVVFVSTDFDEGSQLMNAFGGIAAILRYNTGV
protein production: failed

MTELNFHLLPIISDRFTTTTTTSPSFSSHSSSSSSLLSFTKRRRKHQPLVSSIRMEQSRSRNRKDKVVVILGATGAGKSRLSVDLATRFPSEIINSDKIQVYEGLEITTNQITLQDRRGVPHHLLGVINPEHGELTAGEFRSAASNVVKEITSRQKVPIIAGGSNSFVHALLAQRFDPKFDPFSSGSCLISSDLRYECCFIWVDVSETVLYEYLLRRVDEMMDSGMFEELSRFYDPVKSGLETRFGIRKAIGVPEFDGYFKEYPPEKKMIKWDALRKAAYDKAVDDIKRNTWTLAKRQVKKIEMLKDAGWEIERVDATASFKAVMMKSSSEKKWRENWEEQVLEPSVKIVKRHLVQN
protein production: failed

MTEWYVVLPATILLIALSAFFVIIEFALLAARRNRLEETVETSRSSRAALRSLNELTLMLAGAQLGITMVTFALGAITKPWVHYALMPLFEWARIPLVMADVIAFILSLFIVTFLHLVIGEMAPKSWAIAHPETALRTIAIPARGFINLFRPLLQWINKMANDLVRKVGETPVDRAAAGGYDTDTLHALIEHSRETGALDQQSAAQISGIIKLDKITVGQTLTASPFTHSASATVAEVQAAAQRSGSLRVLIDAPSHLFPHVIHVRDTLGASPDEKASKWSRPILTVAETDTLHQALEYMREHNEQISAVLSADGKTVLGVITWDHILKYLWPASV
protein production: failed

MSNKRIGVVIVSYGHEQDVANLVDTFADQLKTGDRVVVVDNRKPWVLKDAVGERLEKHGAEIINHDNGGFAAGCNVGAAHIVDDVDLLFFLNPDTVIDDPTLFNSLRRVDEQWAAFMPYLLLPDSTINSAGNALHISGLSWVTGLDEKPVEGSSEVTDISIASGACLAVRVDWWKRLGGMEELYFMYHEDTDFSARLLLAGGRIGLLHSAYVTHHYDYAKGDYKWIYIERNRHVLLLSVLPLPLLFVLIPQILGVNLGLWAIAAKEKRVGLKVKSLRLLIRDLPAIFKLRRSTQELAELTPSQYLAKMEWRLDNPNLGNIGSNKIVATGYKTYYKLCMSILKLLA
protein production: failed
